Assay: yeast display, Sf9 membrane polyspecificity reagent, FACS + sequencing; frameworks hold sequencing errors
Outline: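 Nanobodies from a synthetic yeast display library (Saccharomyces cerevisiae BJ5465), induced 36–48 hours with galactose, were stained 1 hour at 4 °C with 10% biotinylated, detergent-solubilized Sf9 membrane reagent, enriched on streptavidin microbeads, then FACS-sorted. Anti-HA (expression) and streptavidin (reagent binding) fluorescence set low and high (top ~1%) gates. Polyreactivity labels come from the gate of origin. Genes were colony-PCR amplified, MiSeq 2 × 250 sequenced and filtered by CDR length.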
With “QVQLVESGGGLVQAGGSLRLSCAASGSTFLYYAMGWYTQAPGKERELVAAITVRGGNTYYADSVKGRFTISRDNAKNTVYLQMNSLKPEDTAVYYCAARAYYSFRYDYWGQGTQVTVSS” the “polyreactivity (PSR sort gate)” value was “high polyreactivity”. With “QVQLVESGGGLVQAGGSLRLSCAASGSTFLYYTMGWYRQAPGKERELVAAITGSGTSTYYADSVKGRFTISRDNAKNTVYLQMNSLKPEDTAVYYCAARGHGRLYYWGHGTQVTVSS” the “polyreactivity (PSR sort gate)” value was “high polyreactivity”. For “QVQLVESGGGLVQAGGSLRLSCAASGSTFLYYTMGWYRQAPGKERELVAAITNGGGSTYYADSVKGRFTISRDNAKNTVYLQMNSLKPEDTAVYYCNAPTVKYRLGYDYWGQGTQVTVSS”, the “polyreactivity (PSR sort gate)” value was “high polyreactivity”. In the case of “QVQLVESGGGLVQAGGSLRLSCAASGSTFLYYTMGWYRQAPGKERELVATISRDGSTKYADSVKGRFTISRDNAKITVYLQMNSLKPEDTAVYYCAAARDSIVYGQYDYWGQGTQVTVSS”, the “polyreactivity (PSR sort gate)” value is reported as “low polyreactivity”. With “QVQLVESGGGLVQAGGSLRLSCAASGSTFNANAMGWYRQAPGKERELVAAITAIGGSTYYADSVTGRFTISRDNAKNTVYLQMNSLKPEDTAVYYCAADFSYVYYLYDYWGQGTQVTVSS” the “polyreactivity (PSR sort gate)” value was “low polyreactivity”. With “QVQLVESGGGLVQAGGSLRLSCAASGSTFNDYAMGWYRQAPGKERELVASIRYSGGGTYYADSVKGRFTISRDNAKNTVYLQMNSLKPEDTAVYYCAKDTHLLNEHSGTSREYDYWGQGTQVTVSS” the “polyreactivity (PSR sort gate)” value was “low polyreactivity”. For “QVQLVESGGGLVQAGGSLRLSCAASGSTFNEYTMGWYRQAPGKERELVAAIRATDGSTYYADSVKGRFTISRDNAKNTVYLQMNSLKPEDTAVYYCAADYYWNDYWGQGTQVTVSS”, the “polyreactivity (PSR sort gate)” value was “low polyreactivity”. In the case of “QVQLVESGGGLVQAGGSLRLSCAASGSTFNGYAMGWYRQAPGKERELVAAITSSGSRTYYADSVKGRFTISRDNAKNTVYLQMNSLKPVDTAVYYCNAGKLARTYFRSSSLSPGDYWGQGTQVTVSS”, the “polyreactivity (PSR sort gate)” value is reported as “high polyreactivity”. In the case of “QVQLVESGGGLVQAGGSLRLSCAASGSTFNGYTMGWYRQAPGKEREFVATITFSDGSTYYADSVKGRFTISRDNAKNTVYLQMNSLKPEDTAVYYCNVDSPIGYDYWGQGTQVTVSS”, the “polyreactivity (PSR sort gate)” value is reported as “low polyreactivity”. In the case of “QVQLVESGGGLVQAGGSLRLSCAASGSTFNINAMGWYRQAPGKERELVADITSGGSTNYADSVKGRFTISRDNAKNTVYLQMNSLKPEDTAVYYCNADVLYGDSYRGGYCGQGTQVTVSS”, the “polyreactivity (PSR sort gate)” value is reported as “low polyreactivity”. With “QVQLVESGGGLVQAGGSLRLSCAASGSTFNKYAMGWYRQAPGKEREFVAAITSSGGRTYYADSVKGRFTISRDNAKNTVYLQMNSLKPEDTAVYYCAARSYTYTAPIYGYWGQGTQVTVSS” the “polyreactivity (PSR sort gate)” value was “high polyreactivity”. For “QVQLVESGGGLVQAGGSLRLSCAASGSTFNKYTMGWYRQAPGKERELVAAITSGDSTYYADSVKGRFTISRDNAKNTVYLQMNSLKPEDTAVYYCAKSLRAYRHVIYGKPFYSWGQGTQVTVSS”, the “polyreactivity (PSR sort gate)” value was “low polyreactivity”. For “QVQLVESGGGLVQAGGSLRLSCAASGSTFNLYAMGWYRQAPGKERELVASISRSGVSTYYADSVKGRFTISRDNAKNTVYLQMNSLKPEDTAVYYCAVDKVLYRLYPGMDYWGQGTQVTVSS”, the “polyreactivity (PSR sort gate)” value was “low polyreactivity”. For “QVQLVESGGGLVQAGGSLRLSCAASGSTFNPYAMGWYRQAPGKERELVAAITWSSDDTYYADSVKGRFTISRDNAKNTVYLQMNSLKPEDTAVYYCAATTVTQWYTITVAYGYWGQGTQVTVSS”, the “polyreactivity (PSR sort gate)” value was “low polyreactivity”. In the case of “QVQLVESGGGLVQAGGSLRLSCAASGSTFNRYAMGWYRQAPGKERELVAAISWSGTRTYYADSVKGRFTISRDNAKNTVYLQMNSLKPEDTAVYYCAARRLYAGHQYDYWGQGTQVTVSS”, the “polyreactivity (PSR sort gate)” value is reported as “high polyreactivity”. With “QVQLVESGGGLVQAGGSLRLSCAASGSTFNSNAMGWYRQAPGKERELVAAINYSGGSTYYADSVKGRFTISRDNAKNTVYLQMNSLKPEDTAVYYCNKVYFDHYLSRVYYWGQVTQVTVSS” the “polyreactivity (PSR sort gate)” value was “high polyreactivity”. In the case of “QVQLVESGGGLVQAGGSLRLSCAASGSTFNSYAMGWYRQAPGKESELVAAITSSGSRTRYADSVKGRFTISRDNAKNTVYLQMNSLKPEDTAVYYCAAVYRLKSGGVWRDSQFGYWGQGTQVTVSS”, the “polyreactivity (PSR sort gate)” value is reported as “high polyreactivity”. With “QVQLVESGGGLVQAGGSLRLSCAASGSTFNSYTMGWYRPAPGKERELVAAISWRGTSTYYADSVKGRFTISRDNAKNTVYLQMNSLKPEDTAVFYCAAAGRYRVLTGLVSSWKYWGQGTLVTVSS” the “polyreactivity (PSR sort gate)” value was “high polyreactivity”. With “QVQLVESGGGLVQAGGSLRLSCAASGSTFNTYAMGWYRQAPGKERELVAAITWRGGRTYYADSVKGRFTISRDNAKNTVYLQMNSLKPEDTAVYYCAARRTYYSRKPRFDYWGQGTQVTVSS” the “polyreactivity (PSR sort gate)” value was “high polyreactivity”. With “QVQLVESGGGLVQAGGSLRLSCAASGSTFNTYAMGWYRQAPGKERELVAAITWRGGRTYYADSVKGRFTISRDNAKNTVYLQMNSLKPEDTAVYYCNTLRPRLDGVYGYDYWGQGTQVTVSS” the “polyreactivity (PSR sort gate)” value was “high polyreactivity”. For “QVQLVESGGGLVQAGGSLRLSCAASGSTFNVNAMGWYRQAPGKERELVAAISSDGITNYADSVKRRFTISRDNAKNTVYLQMNSLKPEDTAVYYCNADWTDGDWADMDYWGQGTQVTVSS”, the “polyreactivity (PSR sort gate)” value was “low polyreactivity”. For “QVQLVESGGGLVQAGGSLRLSCAASGSTFNWNAMGWYRQAPGKERELVAAITSSGARTRYADSVKGRFTISRDNAKNTVYLQMNSLKPEDTAVYYCAAYVYISPSGYYYWGQGTQVTVSS”, the “polyreactivity (PSR sort gate)” value was “high polyreactivity”. In the case of “QVQLVESGGGLVQAGGSLRLSCAASGSTFNYYAMGWDRQAPGTVRELVAAITRNGGRKYYADSVKGRFRLSRDNAKNTVYLQMNSLKPEETAVYYCATDTYSYRSIHDMGYWGQGTQVTVSS”, the “polyreactivity (PSR sort gate)” value is reported as “high polyreactivity”. With “QVQLVESGGGLVQAGGSLRLSCAASGSTFNYYAMGWYRQAPGKERELVAAITSSGTSTFYADSVKGRITISRDNAKNTVYLQMNSLKPEDTAVYYCAVDLYWSYFNGALGYRYYYWGQGTQVTVSS” the “polyreactivity (PSR sort gate)” value was “high polyreactivity”. In the case of “QVQLVESGGGLVQAGGSLRLSCAASGSTFPANAMGWYRQAPGKERELVATISWSGGRTYYADSVKGRFTISRDNAKNTVYLQMNSLKPEDTAVYYCAKGYYWLSTYGDSRYGYWGQGTQVTVSS”, the “polyreactivity (PSR sort gate)” value is reported as “high polyreactivity”. For “QVQLVESGGGLVQAGGSLRLSCAASGSTFPAYAMGWYRQAPGKERELVAGISSGGRTYYADSVKGRFTISRDNAKNTVYLQMNSLKPEDTAVYYCAAFRFYWQRPDRYYYWGQGTQVTVSS”, the “polyreactivity (PSR sort gate)” value was “high polyreactivity”. With “QVQLVESGGGLVQAGGSLRLSCAASGSTFPAYAMGWYRQAPGKERELVATITYTGGSTYYADSVKGRFTISRDNAKNTVYLQMNSLKPEDTAVYYCAADRWDQEDEFDYWGQGTQVTVSS” the “polyreactivity (PSR sort gate)” value was “low polyreactivity”. For “QVQLVESGGGLVQAGGSLRLSCAASGSTFPEYAMGWYRQAPGKERELVAAISKRGGRTYYADSVKGRFTISRDNAKNTVYLQMNSLKPEETAVYYCARDSYPHGRARFDYWGQGTQVTVSS”, the “polyreactivity (PSR sort gate)” value was “high polyreactivity”. For “QVQLVESGGGLVQAGGSLRLSCAASGSTFPFYAMGWYRQAPGKERELVAAITSGGSTYADSVKGRFTISRDNAKNTVYLQMNSLNPEDTAVYYCAASWPRWWRFGYWGQGTQVTVSS”, the “polyreactivity (PSR sort gate)” value was “low polyreactivity”. For “QVQLVESGGGLVQAGGSLRLSCAASGSTFPGNAMGWYRQAPGKERELVAAITSSGGSTDYADSVKGRFTISRDNAKNTVYLQMNSLKPEDTAVYYCNAKDAEHYERFNYWGQGTQVTVSS”, the “polyreactivity (PSR sort gate)” value was “low polyreactivity”. In the case of “QVQLVESGGGLVQAGGSLRLSCAASGSTFPGNAMGWYRQAPGKERELVASISGGGDSTYYADSVKGRFTISRDYAKNTVYLQMNSLKPEDTAVYYCAADYRQEPGYTGYYYWGQGTQVTVSS”, the “polyreactivity (PSR sort gate)” value is reported as “low polyreactivity”. With “QVQLVESGGGLVQAGGSLRLSCAASGSTFPGNARGWSRQAPGKLRELVAAIRWSGGRTYYADSVKGRFTISRDNAKNTVYLQMNSLNPEDTAVSYCNAVSDRPIPWYYYWGQGTQVTASS” the “polyreactivity (PSR sort gate)” value was “low polyreactivity”. In the case of “QVQLVESGGGLVQAGGSLRLSCAASGSTFPGYAMGWYRQAPGKERELVASIYTGGSTYYADSVKGRFTISRDNAKNTVYLQMNSLKPEDTAVYYCAADSYNVSSLLYYWGQGTQVTVSS”, the “polyreactivity (PSR sort gate)” value is reported as “low polyreactivity”. With “QVQLVESGGGLVQAGGSLRLSCAASGSTFPHYVMGWYRQAPGKERELVAGISWSGGSTYYADSVKGRFTISRDNAKNTVYLQMNSLKPEDTAVYYCAKVLTWRGYRYNYWGQGTQVTVSS” the “polyreactivity (PSR sort gate)” value was “low polyreactivity”. With “QVQLVESGGGLVQAGGSLRLSCAASGSTFPLNAMGWYRQAPGKERELVASINFGGGTTYYADSVKGRFTISRDNAKNTVYLQMNSLKPEDTAVYYCAADVYRGTYRRDYWGQGTQVTVSS” the “polyreactivity (PSR sort gate)” value was “high polyreactivity”. For “QVQLVESGGGLVQAGGSLRLSCAASGSTFPLYAMGLYRQAPGKERELVAAITGGGGRTYYADSVKGRFTISRDIAKNTVYLQMNSLKPEYTAVYYCNAVVYLTNYWYDYWAQGTQVTVSS”, the “polyreactivity (PSR sort gate)” value was “low polyreactivity”. In the case of “QVQLVESGGGLVQAGGSLRLSCAASGSTFPLYAMGWYRQAPGKERELVAAITWSGANTYYADSVKGRFTISRDNAKNTVYLQMNSLKPEDTAVYYCAALYYWDQPQLEFSYWGQGTQVTVSS”, the “polyreactivity (PSR sort gate)” value is reported as “low polyreactivity”. For “QVQLVESGGGLVQAGGSLRLSCAASGSTFPLYAMGWYRQAPGKERELVATISWGDGSTYYADSVKGRFTISRDTAKNTVYLQMNSLNPEETAVYYCAEDEYPDATTDATDKYYYWGQGTQVTVST”, the “polyreactivity (PSR sort gate)” value was “low polyreactivity”. In the case of “QVQLVESGGGLVQAGGSLRLSCAASGSTFPPNAMGWYRQAPGKEGELVADSSDSSTYYADSVKGRFTISRDNAKNTVYLQMNSLKPEDTAVYYCAAADAGLSSKSYGQQYDYWGQGTQVTVSS”, the “polyreactivity (PSR sort gate)” value is reported as “low polyreactivity”. In the case of “QVQLVESGGGLVQAGGSLRLSCAASGSTFPPNAMGWYRQAPGKERELVAAISERGGSTYYADSVKGRFTISRDNAKNTVYLLMNSLKPEDTAVYYCAVDYYYLMYWGQGTQVTVSS”, the “polyreactivity (PSR sort gate)” value is reported as “low polyreactivity”. With “QVQLVESGGGLVQAGGSLRLSCAASGSTFPPNAMGWYRQARGKARELVAVISYSDGSTYYADSVNGRFTISRDNAKNTVYLQMNSLKPEDTAVYYCAAYSGYAGVSMYYWGQGTQVTVSS” the “polyreactivity (PSR sort gate)” value was “low polyreactivity”. In the case of “QVQLVESGGGLVQAGGSLRLSCAASGSTFPPYAMGWYRPAPGKGRELVAAISYRDTGTYYADSVKGRFTISRDNAKNTVYLQMNSLKPEDTAVYYCAADYLIVYYFLYYYWGQGTPVTVSS”, the “polyreactivity (PSR sort gate)” value is reported as “low polyreactivity”. In the case of “QVQLVESGGGLVQAGGSLRLSCAASGSTFPPYAMGWYRQAPGKERDLVADITRRGASTYYADSVKGRFTISRDNAKNTVYLQMNSLKPEDTAVYYCAARYYYQYYSGFDYWGQGTQVTVSS”, the “polyreactivity (PSR sort gate)” value is reported as “high polyreactivity”.
